From patent US20220040297A1 (Chugai, published 2022) come the findings set out here.

To fix the notation:
B1: CE115HA000 A56G (antibody, name in Kabat numbering, V domains shown)
VH: QVQLVESGGGVVQPGRSLRLSCAASGFTFSNAWMHWVRQAPGKGLEWVAQIKAKSNNYGTYYAESVKGRFTISRDDSKNSLYLQMNSLKTEDTAVYYCRYVHYGAYYGVDAWGQGTTVTVSS
VL: DIVMTQSPLSLPVTPGEPASISCRSSQSLVHSNRNTYLHWYQQKPGQAPRLLIYKVSNRFSGVPDRFSGSGSGTDFTLKISRVEAEDVGVYYCGQGTQVPYTFGQGTKLEIK
B2: CE115HA000 A99S (antibody, name in Kabat numbering, V domains shown)
VH: QVQLVESGGGVVQPGRSLRLSCAASGFTFSNAWMHWVRQAPGKGLEWVAQIKAKSNNYATYYAESVKGRFTISRDDSKNSLYLQMNSLKTEDTAVYYCRYVHYGSYYGVDAWGQGTTVTVSS
VL: DIVMTQSPLSLPVTPGEPASISCRSSQSLVHSNRNTYLHWYQQKPGQAPRLLIYKVSNRFSGVPDRFSGSGSGTDFTLKISRVEAEDVGVYYCGQGTQVPYTFGQGTKLEIK
B3: CE115HA000 A99T (antibody, name in Kabat numbering, V domains shown)
VH: QVQLVESGGGVVQPGRSLRLSCAASGFTFSNAWMHWVRQAPGKGLEWVAQIKAKSNNYATYYAESVKGRFTISRDDSKNSLYLQMNSLKTEDTAVYYCRYVHYGTYYGVDAWGQGTTVTVSS
VL: DIVMTQSPLSLPVTPGEPASISCRSSQSLVHSNRNTYLHWYQQKPGQAPRLLIYKVSNRFSGVPDRFSGSGSGTDFTLKISRVEAEDVGVYYCGQGTQVPYTFGQGTKLEIK
B4: CE115HA000 A60D (antibody, name in Kabat numbering, V domains shown)
VH: QVQLVESGGGVVQPGRSLRLSCAASGFTFSNAWMHWVRQAPGKGLEWVAQIKAKSNNYATYYDESVKGRFTISRDDSKNSLYLQMNSLKTEDTAVYYCRYVHYGAYYGVDAWGQGTTVTVSS
VL: DIVMTQSPLSLPVTPGEPASISCRSSQSLVHSNRNTYLHWYQQKPGQAPRLLIYKVSNRFSGVPDRFSGSGSGTDFTLKISRVEAEDVGVYYCGQGTQVPYTFGQGTKLEIK
B5: CE115HA000 A56K (antibody, name in Kabat numbering, V domains shown)
VH: QVQLVESGGGVVQPGRSLRLSCAASGFTFSNAWMHWVRQAPGKGLEWVAQIKAKSNNYKTYYAESVKGRFTISRDDSKNSLYLQMNSLKTEDTAVYYCRYVHYGAYYGVDAWGQGTTVTVSS
VL: DIVMTQSPLSLPVTPGEPASISCRSSQSLVHSNRNTYLHWYQQKPGQAPRLLIYKVSNRFSGVPDRFSGSGSGTDFTLKISRVEAEDVGVYYCGQGTQVPYTFGQGTKLEIK
B6: CE115HA000 A56L (antibody, name in Kabat numbering, V domains shown)
VH: QVQLVESGGGVVQPGRSLRLSCAASGFTFSNAWMHWVRQAPGKGLEWVAQIKAKSNNYLTYYAESVKGRFTISRDDSKNSLYLQMNSLKTEDTAVYYCRYVHYGAYYGVDAWGQGTTVTVSS
VL: DIVMTQSPLSLPVTPGEPASISCRSSQSLVHSNRNTYLHWYQQKPGQAPRLLIYKVSNRFSGVPDRFSGSGSGTDFTLKISRVEAEDVGVYYCGQGTQVPYTFGQGTKLEIK
B7: CE115HA000 D72V (antibody, name in Kabat numbering, V domains shown)
VH: QVQLVESGGGVVQPGRSLRLSCAASGFTFSNAWMHWVRQAPGKGLEWVAQIKAKSNNYATYYAESVKGRFTISRVDSKNSLYLQMNSLKTEDTAVYYCRYVHYGAYYGVDAWGQGTTVTVSS
VL: DIVMTQSPLSLPVTPGEPASISCRSSQSLVHSNRNTYLHWYQQKPGQAPRLLIYKVSNRFSGVPDRFSGSGSGTDFTLKISRVEAEDVGVYYCGQGTQVPYTFGQGTKLEIK
B8: CE115HA000 A99F (antibody, name in Kabat numbering, V domains shown)
VH: QVQLVESGGGVVQPGRSLRLSCAASGFTFSNAWMHWVRQAPGKGLEWVAQIKAKSNNYATYYAESVKGRFTISRDDSKNSLYLQMNSLKTEDTAVYYCRYVHYGFYYGVDAWGQGTTVTVSS
VL: DIVMTQSPLSLPVTPGEPASISCRSSQSLVHSNRNTYLHWYQQKPGQAPRLLIYKVSNRFSGVPDRFSGSGSGTDFTLKISRVEAEDVGVYYCGQGTQVPYTFGQGTKLEIK
B9: CE115HA000 A102V (antibody, name in Kabat numbering, V domains shown)
VH: QVQLVESGGGVVQPGRSLRLSCAASGFTFSNAWMHWVRQAPGKGLEWVAQIKAKSNNYATYYAESVKGRFTISRDDSKNSLYLQMNSLKTEDTAVYYCRYVHYGAYYGVDVWGQGTTVTVSS
VL: DIVMTQSPLSLPVTPGEPASISCRSSQSLVHSNRNTYLHWYQQKPGQAPRLLIYKVSNRFSGVPDRFSGSGSGTDFTLKISRVEAEDVGVYYCGQGTQVPYTFGQGTKLEIK
B10: CE115HA000 D72E (antibody, name in Kabat numbering, V domains shown)
VH: QVQLVESGGGVVQPGRSLRLSCAASGFTFSNAWMHWVRQAPGKGLEWVAQIKAKSNNYATYYAESVKGRFTISREDSKNSLYLQMNSLKTEDTAVYYCRYVHYGAYYGVDAWGQGTTVTVSS
VL: DIVMTQSPLSLPVTPGEPASISCRSSQSLVHSNRNTYLHWYQQKPGQAPRLLIYKVSNRFSGVPDRFSGSGSGTDFTLKISRVEAEDVGVYYCGQGTQVPYTFGQGTKLEIK
B11: CE115HA000 A56Q (antibody, name in Kabat numbering, V domains shown)
VH: QVQLVESGGGVVQPGRSLRLSCAASGFTFSNAWMHWVRQAPGKGLEWVAQIKAKSNNYQTYYAESVKGRFTISRDDSKNSLYLQMNSLKTEDTAVYYCRYVHYGAYYGVDAWGQGTTVTVSS
VL: DIVMTQSPLSLPVTPGEPASISCRSSQSLVHSNRNTYLHWYQQKPGQAPRLLIYKVSNRFSGVPDRFSGSGSGTDFTLKISRVEAEDVGVYYCGQGTQVPYTFGQGTKLEIK
B12: CE115HA000 A56N (antibody, name in Kabat numbering, V domains shown)
VH: QVQLVESGGGVVQPGRSLRLSCAASGFTFSNAWMHWVRQAPGKGLEWVAQIKAKSNNYNTYYAESVKGRFTISRDDSKNSLYLQMNSLKTEDTAVYYCRYVHYGAYYGVDAWGQGTTVTVSS
VL: DIVMTQSPLSLPVTPGEPASISCRSSQSLVHSNRNTYLHWYQQKPGQAPRLLIYKVSNRFSGVPDRFSGSGSGTDFTLKISRVEAEDVGVYYCGQGTQVPYTFGQGTKLEIK
B13: CE115HA000 A56Y (antibody, name in Kabat numbering, V domains shown)
VH: QVQLVESGGGVVQPGRSLRLSCAASGFTFSNAWMHWVRQAPGKGLEWVAQIKAKSNNYYTYYAESVKGRFTISRDDSKNSLYLQMNSLKTEDTAVYYCRYVHYGAYYGVDAWGQGTTVTVSS
VL: DIVMTQSPLSLPVTPGEPASISCRSSQSLVHSNRNTYLHWYQQKPGQAPRLLIYKVSNRFSGVPDRFSGSGSGTDFTLKISRVEAEDVGVYYCGQGTQVPYTFGQGTKLEIK
B14: CE115HA000 D73E (antibody, name in Kabat numbering, V domains shown)
VH: QVQLVESGGGVVQPGRSLRLSCAASGFTFSNAWMHWVRQAPGKGLEWVAQIKAKSNNYATYYAESVKGRFTISRDESKNSLYLQMNSLKTEDTAVYYCRYVHYGAYYGVDAWGQGTTVTVSS
VL: DIVMTQSPLSLPVTPGEPASISCRSSQSLVHSNRNTYLHWYQQKPGQAPRLLIYKVSNRFSGVPDRFSGSGSGTDFTLKISRVEAEDVGVYYCGQGTQVPYTFGQGTKLEIK
B15: CE115HA000 A99H (antibody, name in Kabat numbering, V domains shown)
VH: QVQLVESGGGVVQPGRSLRLSCAASGFTFSNAWMHWVRQAPGKGLEWVAQIKAKSNNYATYYAESVKGRFTISRDDSKNSLYLQMNSLKTEDTAVYYCRYVHYGHYYGVDAWGQGTTVTVSS
VL: DIVMTQSPLSLPVTPGEPASISCRSSQSLVHSNRNTYLHWYQQKPGQAPRLLIYKVSNRFSGVPDRFSGSGSGTDFTLKISRVEAEDVGVYYCGQGTQVPYTFGQGTKLEIK
B16: CE115HA000 A60E (antibody, name in Kabat numbering, V domains shown)
VH: QVQLVESGGGVVQPGRSLRLSCAASGFTFSNAWMHWVRQAPGKGLEWVAQIKAKSNNYATYYEESVKGRFTISRDDSKNSLYLQMNSLKTEDTAVYYCRYVHYGAYYGVDAWGQGTTVTVSS
VL: DIVMTQSPLSLPVTPGEPASISCRSSQSLVHSNRNTYLHWYQQKPGQAPRLLIYKVSNRFSGVPDRFSGSGSGTDFTLKISRVEAEDVGVYYCGQGTQVPYTFGQGTKLEIK
B17: CE115HA000 D73G (antibody, name in Kabat numbering, V domains shown)
VH: QVQLVESGGGVVQPGRSLRLSCAASGFTFSNAWMHWVRQAPGKGLEWVAQIKAKSNNYATYYAESVKGRFTISRDGSKNSLYLQMNSLKTEDTAVYYCRYVHYGAYYGVDAWGQGTTVTVSS
VL: DIVMTQSPLSLPVTPGEPASISCRSSQSLVHSNRNTYLHWYQQKPGQAPRLLIYKVSNRFSGVPDRFSGSGSGTDFTLKISRVEAEDVGVYYCGQGTQVPYTFGQGTKLEIK
B18: CE115HA000 A102Y (antibody, name in Kabat numbering, V domains shown)
VH: QVQLVESGGGVVQPGRSLRLSCAASGFTFSNAWMHWVRQAPGKGLEWVAQIKAKSNNYATYYAESVKGRFTISRDDSKNSLYLQMNSLKTEDTAVYYCRYVHYGAYYGVDYWGQGTTVTVSS
VL: DIVMTQSPLSLPVTPGEPASISCRSSQSLVHSNRNTYLHWYQQKPGQAPRLLIYKVSNRFSGVPDRFSGSGSGTDFTLKISRVEAEDVGVYYCGQGTQVPYTFGQGTKLEIK
B19: CE115HA000 A99I (antibody, name in Kabat numbering, V domains shown)
VH: QVQLVESGGGVVQPGRSLRLSCAASGFTFSNAWMHWVRQAPGKGLEWVAQIKAKSNNYATYYAESVKGRFTISRDDSKNSLYLQMNSLKTEDTAVYYCRYVHYGIYYGVDAWGQGTTVTVSS
VL: DIVMTQSPLSLPVTPGEPASISCRSSQSLVHSNRNTYLHWYQQKPGQAPRLLIYKVSNRFSGVPDRFSGSGSGTDFTLKISRVEAEDVGVYYCGQGTQVPYTFGQGTKLEIK
B20: CE115HA000 A99D (antibody, name in Kabat numbering, V domains shown)
VH: QVQLVESGGGVVQPGRSLRLSCAASGFTFSNAWMHWVRQAPGKGLEWVAQIKAKSNNYATYYAESVKGRFTISRDDSKNSLYLQMNSLKTEDTAVYYCRYVHYGDYYGVDAWGQGTTVTVSS
VL: DIVMTQSPLSLPVTPGEPASISCRSSQSLVHSNRNTYLHWYQQKPGQAPRLLIYKVSNRFSGVPDRFSGSGSGTDFTLKISRVEAEDVGVYYCGQGTQVPYTFGQGTKLEIK

The target of this assay is T1, CD3ε homodimer protein (human, UniProt P07766 23-126, limits assumed, sulfo-tag or biotin label in some ECL assays).
T1 construct: also called human CD3ε homodimer protein; CD3 (CD3ε)
T1 sequence (P07766 23-126 limits assumed): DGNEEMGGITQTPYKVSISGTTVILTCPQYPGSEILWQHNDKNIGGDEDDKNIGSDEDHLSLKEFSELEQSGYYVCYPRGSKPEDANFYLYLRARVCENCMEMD
Nature of the assay: SPR, CD3ε homodimer on chip.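 Also: biacore SPR with antibody variants flowed as analyte over amine-coupled CD3ε homodimer on a CM chip, bound amount of each single-residue H chain variant over that of parent.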 On the technique in general: Surface plasmon resonance follows binding to a sensor surface in real time, without labels.
Description: An appropriate amount of CD3ε homodimer protein was immobilized onto Sensor chip CM4 (GE Healthcare Japan Corp.) by the amine coupling method. Then, the antibody having an appropriate concentration was injected thereto as an analyte and allowed to interact with the CD3ε homodimer protein on the sensor chip. Then, the sensor chip was regenerated by the injection of 10 mmol/L glycine-HCl (pH 1.5). The assay was conducted at 25° C., and HBS-EP+ (GE Healthcare Japan Corp.) was used as a running buffer. […] Each parameter was calculated using Biacore T200 Evaluation Software (GE Healthcare Japan Corp.).
Specifically, when the amount of the antibody comprising CE115HA000 bound was defined as X and the amount of the H chain one-amino acid altered form bound was defined as Y, a value of Z (ratio of amounts bound)=Y/X was used.
Consider B1, for which the “ratio of amounts bound vs CE115HA000” value was 0.61.

Turning to B2, the “ratio of amounts bound vs CE115HA000” value stood at 0.82.

B3: the “ratio of amounts bound vs CE115HA000” value is 0.84.

For B4, the “ratio of amounts bound vs CE115HA000” value came out at 0.99.

Regarding B5, the “ratio of amounts bound vs CE115HA000” value was 1.35.

Turning to B6, the “ratio of amounts bound vs CE115HA000” value stood at 0.8.

In the case of B7, the “ratio of amounts bound vs CE115HA000” value was determined as 1.43.

As for B8, the “ratio of amounts bound vs CE115HA000” value was 1.43.

On to B9, for which the “ratio of amounts bound vs CE115HA000” value came to 1.43.

As for B10, the “ratio of amounts bound vs CE115HA000” value was determined as 1.05.

With B11, the “ratio of amounts bound vs CE115HA000” value was determined as 0.76.

For the molecule B12, the “ratio of amounts bound vs CE115HA000” value amounted to 0.87.

On to B13, for which the “ratio of amounts bound vs CE115HA000” value was 0.66.

For B14, the “ratio of amounts bound vs CE115HA000” value stood at 0.73.

As for B15, the “ratio of amounts bound vs CE115HA000” value was found to be 1.48.

On to B16, for which the “ratio of amounts bound vs CE115HA000” value amounted to 0.94.

For B17, the “ratio of amounts bound vs CE115HA000” value was 0.43.

Regarding B18, the “ratio of amounts bound vs CE115HA000” value came to 0.91.

As for B19, the “ratio of amounts bound vs CE115HA000” value was determined as 1.13.

Take B20: the “ratio of amounts bound vs CE115HA000” value came to 0.28.
